The values that follow come from patent US20040009568.

Series [1] has as its target dephosphorylated α-casein (UniProt P02662).

Chain of dephosphorylated α-casein (P02662 16-214): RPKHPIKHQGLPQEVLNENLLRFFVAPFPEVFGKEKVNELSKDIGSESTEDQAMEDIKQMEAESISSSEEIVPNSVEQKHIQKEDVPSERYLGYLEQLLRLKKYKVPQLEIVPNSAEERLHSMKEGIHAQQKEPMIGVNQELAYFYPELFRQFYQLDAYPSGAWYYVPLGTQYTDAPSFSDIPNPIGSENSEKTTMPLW

For the substance “catalytic domain of the human hepatocyte growth factor receptor kinase (HGFRkd), unphosphorylated”, the autophosphorylation rate entry is recorded as “The HGFR autophosphorylation rate is dependent on the concentration of HGFR”. Further, in the series with poly(Glu4Tyr), the Km (steady-state, coupled enzymatic assay, 37 C) worked out at 10.1 mM and the kcat/Km (steady-state, coupled enzymatic assay, 37 C) was 48.1 s^-1M^-1.

For “phosphorylated HGFR (autophosphorylated catalytic domain of the human hepatocyte growth factor receptor kinase)”, in series [1], the “Km, Dephosphorylated α-casein (coupled, enzymatic format)” value came out at 0.0285 ± 0.0035 mM. Also, in the series on poly(Glu4Tyr), the Km (steady-state, coupled enzymatic assay, 37 C) amounted to 8.19 mM and the kcat/Km (steady-state, coupled enzymatic assay, 37 C) worked out at 9260 s^-1M^-1.
